PMC8892085, “Molecular insights into the interaction between human nicotinamide phosphoribosyltransferase and Toll-like receptor 4” (The Journal of Biological Chemistry, 2022)
Where a chain is given by its changes, count along the chain named.

B1: human nicotinamide phosphoribosyltransferase (NAMPT), wildtype (enzyme)
chain: MNPAAEAEFNILLATDSYKVTHYKQYPPNTSKVYSYFECREKKTENSKLRKVKYEETVFYGLQYILNKYLKGKVVTKEKIQEAKDVYKEHFQDDVFNEKGWNYILEKYDGHLPIEIKAVPEGFVIPRGNVLFTVENTDPECYWLTNWIETILVQSWYPITVATNSREQKKILAKYLLETSGNLDGLEYKLHDFGYRGVSSQETAGIGASAHLVNFKGTDTVAGLALIKKYYGTKDPVPGYSVPAAEHSTITAWGKDHEKDAFEHIVTQFSSVPVSVVSDSYDIYNACEKIWGEDLRHLIVSRSTQAPLIIRPDSGNPLDTVLKVLEILGKKFPVTENSKGYKLLPPYLRVIQGDGVDINTLQEIVEGMKQKMWSIENIAFGSGGGLLQKLTRDLLNCSFKCSYVVTNGLGINVFKDPVADPNKRSKKGRLSLHRTPAGNFVTLEEGKGDLEEYGQDLLHTVFKNGKVTKSYSFDEIRKNAQLNIELEAAHH
notes: nicotinamide phosphoribosyltransferase (NAMPT), human, UniProt P43490; also called WT; HsNAMPT; source: ClearColi BL21 (DE3), purified (Ni-NTA, PD10; ε-poly-L-lysine resin to remove endotoxin)
B2: NAMPT α-loop double mutant K(68/71)S (enzyme, human)
chain: B1 chain with K68S, K71S
notes: nicotinamide phosphoribosyltransferase (NAMPT), human, UniProt P43490; mutagenised pET15b plasmid; K68 and K71 replaced with serine; source: ClearColi BL21 (DE3), purified (Ni-NTA, PD10; ε-poly-L-lysine resin to remove endotoxin)
B3: NAMPT α-loop triple mutant K(68>73)A (enzyme, human)
chain: B1 chain with K68A, K71A, K73A
notes: nicotinamide phosphoribosyltransferase (NAMPT), human, UniProt P43490; mutagenised pET15b plasmid; source: ClearColi BL21 (DE3), purified (Ni-NTA, PD10; ε-poly-L-lysine resin to remove endotoxin)
B4: NAMPT β-loop double mutant K(42/48)A (enzyme, human)
chain: B1 chain with K42A, K48A
notes: nicotinamide phosphoribosyltransferase (NAMPT), human, UniProt P43490; mutagenised pET15b plasmid; K42 and K48 replaced with alanine; source: ClearColi BL21 (DE3), purified (Ni-NTA, PD10; ε-poly-L-lysine resin to remove endotoxin)
B5: NAMPT β-loop full mutant K/R(42>51)A (enzyme, human)
chain: B1 chain with K42A, K43A, K48A, R50A, K51A
notes: nicotinamide phosphoribosyltransferase (NAMPT), human, UniProt P43490; mutagenised pET15b plasmid; the entire set of positive residues of the β1-β2 K-rich loop (residues 42-51) replaced with alanine; source: ClearColi BL21 (DE3), purified (Ni-NTA, PD10; ε-poly-L-lysine resin to remove endotoxin)
B6: NAMPT β-loop deletion mutant Δ(42>51) (enzyme, human)
chain: MNPAAEAEFNILLATDSYKVTHYKQYPPNTSKVYSYFECREVKYEETVFYGLQYILNKYLKGKVVTKEKIQEAKDVYKEHFQDDVFNEKGWNYILEKYDGHLPIEIKAVPEGFVIPRGNVLFTVENTDPECYWLTNWIETILVQSWYPITVATNSREQKKILAKYLLETSGNLDGLEYKLHDFGYRGVSSQETAGIGASAHLVNFKGTDTVAGLALIKKYYGTKDPVPGYSVPAAEHSTITAWGKDHEKDAFEHIVTQFSSVPVSVVSDSYDIYNACEKIWGEDLRHLIVSRSTQAPLIIRPDSGNPLDTVLKVLEILGKKFPVTENSKGYKLLPPYLRVIQGDGVDINTLQEIVEGMKQKMWSIENIAFGSGGGLLQKLTRDLLNCSFKCSYVVTNGLGINVFKDPVADPNKRSKKGRLSLHRTPAGNFVTLEEGKGDLEEYGQDLLHTVFKNGKVTKSYSFDEIRKNAQLNIELEAAHH
notes: nicotinamide phosphoribosyltransferase (NAMPT), human, UniProt P43490; pET15b plasmid changed with the In-Fusion kit; the β1-β2 K-rich loop fully deleted; also called ΔK(42>51); β-loop deleted mutant; source: ClearColi BL21 (DE3), purified (Ni-NTA, PD10; ε-poly-L-lysine resin to remove endotoxin)

Assays:
[1] = target: T1, Toll-like receptor 4 (TLR4) (human, UniProt O00206 24-629); test: SPR; evanescent wave/resonant mirror optical biosensor (IAsys plus), called surface plasmon resonance by the paper; TLR4 covalently anchored (EDC/NHS) to carboxylate cuvettes, 1.3 ng/mm^2; NAMPT proteins soluble, 1 to 3 nM; PBS; 37 °C; monoexponential fit; conditions: both partners purified
T1 construct: Toll-like receptor 4 (TLR4) from the plasmid pEFBOS-TLR4 (Dr Kensuke Miyake); the introduction speaks of the extracellular domain of TLR4; human TLR4 (AAY82270.1) is named for the docking model; Cells were lysed with 0.3% Triton X-100, which may mean the whole receptor; Anchored to the sensor 'via the N terminus of the histidine tail'; also called biosensor-tethered TLR4

[2] = target: the molecule itself; test: SEC; Superose 12 10/300 GL, 50 mM Hepes pH 7.5, 0.3 M NaCl; proteins loaded at 0.9 mg/ml; standards BSA, ovalbumin, carbonic anhydrase

T1 sequence (O00206 24-629): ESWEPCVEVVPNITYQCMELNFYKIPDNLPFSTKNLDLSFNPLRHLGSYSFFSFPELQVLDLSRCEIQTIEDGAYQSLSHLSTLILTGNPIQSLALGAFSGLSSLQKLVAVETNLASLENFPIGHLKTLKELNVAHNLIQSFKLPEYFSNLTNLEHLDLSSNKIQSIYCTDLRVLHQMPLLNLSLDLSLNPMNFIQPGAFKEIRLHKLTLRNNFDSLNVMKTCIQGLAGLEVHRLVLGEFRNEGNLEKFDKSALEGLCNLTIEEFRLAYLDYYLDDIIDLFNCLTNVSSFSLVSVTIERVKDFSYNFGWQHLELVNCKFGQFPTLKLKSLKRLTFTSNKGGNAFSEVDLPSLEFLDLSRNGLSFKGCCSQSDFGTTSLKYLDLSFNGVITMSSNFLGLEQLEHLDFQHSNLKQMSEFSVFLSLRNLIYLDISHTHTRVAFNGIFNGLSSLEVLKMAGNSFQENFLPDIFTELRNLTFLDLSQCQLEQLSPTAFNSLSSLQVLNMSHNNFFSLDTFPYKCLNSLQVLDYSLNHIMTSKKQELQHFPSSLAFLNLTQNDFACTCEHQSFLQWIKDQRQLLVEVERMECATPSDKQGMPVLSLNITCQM

Binder	Kd [1]	koff [1]	kon [1]	stoichiometry N [2]
B1	17.8 nM	0.005 ± 0.001 s⁻¹	280000 M⁻¹ s⁻¹	2
B2	20.8 nM	0.01 ± 0.004 s⁻¹	480000 M⁻¹ s⁻¹	2
B3	1280 nM	0.004 ± 0.002 s⁻¹	3100 M⁻¹ s⁻¹	2
B4	37.1 nM	0.029 ± 0.003 s⁻¹	780000 M⁻¹ s⁻¹	2
B5	630 nM	0.085 ± 0.023 s⁻¹	130000 M⁻¹ s⁻¹	2
B6	218 nM	0.07 ± 0.02 s⁻¹	320000 M⁻¹ s⁻¹	2
